Literature values, collected in publication PMC5132258.

Biological target: His89 (UniProt position 89, VLYCVHQRIDV)
Details: not stated (folded wild-type matrix protein implied; myristoylation state not given)

HIV-1 matrix protein p17 (MA), N-terminal domain of the Gag polyprotein (Human immunodeficiency virus type 1)
pKa: 6.5
